{"source": "the DeepSol protein solubility set"}
{"assay": "soluble on expression in E. coli; label from the status in PepcDB or PDB records"}
{"sequence": "MSLALNPAVAPIKSIEFIPVNYQASNWSQNTVVVKVTDENGVYGLGEADGSPDAILAYANIETEHKWLTNITEKAIGRLPIEINAIWDAMYDATQWQGMRGLGMFALSGIDMALYDLAGKQLGVPAYQLLGGTNKDKVHPYLTLYPAIPVDASLDVAIKGYAPLLEKAKAHNIRAVKVCVPIKADWSTKEVAYYLRELRGILGHDTDMMVDYLYRFTDWYEVARLLNSIEDLELYFAEATLQHDDLSGHAKLVENTRSRICGAEMSTTRFEAEEWITKGKVHLLQSDYNRCGGLTELRRITEMATANNVQVMPHNWKTGITSAAAIHYQFAVGNAPYFEYVHPEFCDGELRKYLVTPEAELVDGGFAKPTAPGLGIDLNQEFLASLEGHHHHHH", "soluble on expression in E. coli": "soluble"}
{"sequence": "MSLAMQDFRPGVYRHYKGDHYLALGLARADETDEVVVVYTRLYARAGLPMSTRLLRIWNETVDTGAGPQPRFAYVGHVTPEQGEGHHHHHH", "soluble on expression in E. coli": "soluble"}
{"sequence": "MSLAQGIIENHLSKRSALLEQEKTSRHDYAFKQSMSPVAKTAAKVLADIRKKELKSIWSPTTTSNEKRDLKDVTFPGMSFTLSRDRMQKTALWKIVSAMPKGCLLHAHMEAMIDIDWMIEQAIELPGYYISSPVPLCPRTGSAGKWSEPFQFSYRPRLGSGANARNGSEPEISIWQAGYTPGRLVPVAAAAKMYPGGVEAFKAWAVSRMTINEEEALEHHHGIDDVWDKFRSCFLAIGGLFFTEPIFRRCIPRLLQQLHDDGIKYVELRLAPNPFYREGSNEAEPDFLYFLQCFQEEVDAYMSSPTGRGFWGAKIIWTAIRSFPDDLIKESMIHCLNSKKAYPSVITGFDFVGQEDAGRPLVDLLPLCKWFQQQCADEQLQIPFFLHAGECLGDGNDTDSNLVDAILLNSRRIGHAFSLYKHPLLIDLVKDKNILIEMCPISHEVLRLTSNILMHPMPALQARGVAVSLNNDDPAVLGHGKNGLSHDFYQVTAAFENTGLAGLATMAEDSIRWAAFEDETDSEWLQGIDGKGNGLKASRLAEWRTAFDEWCAWVVQEFGAESQIEGHHHHHH", "soluble on expression in E. coli": "soluble"}
{"sequence": "MSLAQHPTGIHHLAFMAGDIKKHIAFFSDVMGCPLVALFDMHGVPGGLHAFLRMNDHSYFSIVQLPDVDKIPVQLGVTHAGNGARPSAPGTLQHLAFRADTEDALLALRDRIRSHGINVLGPIDHGMCRSIYFAGPDQMTLEVACSSETIDEGHHHHHH", "soluble on expression in E. coli": "soluble"}
{"sequence": "MSLAQTNPNSKGDQQKMINIAHRGASGHAPENTMAAFQKGFDMKVDYIEFDVHMTKDGELVLMHDLTVDRTTNGHGYVSDLTLDEIKQFDAGSWFHEDFVGEKVPTFEETLDVFRGKVGLLIELKSPERYPGMEEKVAEALKERKMDRSSNHKVIIQSFNHESMKKSKELLPHIPHGVLAGPSWANVTDEQLEEFSTYADYFNPNMTIVTPELVSRIHAVGMKIFPYTSRTQEQANRLFELKVDGIITDFPEHVYFHPVKNQEGHHHHHH", "soluble on expression in E. coli": "not soluble"}
{"sequence": "MSLAREPRNIGASVRARLLDRARAERSDFQILLTRYALERLLYRLSASPHRDRFILKGAMLFVTWIADPFRPTRDLDLLGHGDRDTEAIAETFRAICAQPVVDDGVTFDVAALMATPIREELEYGGVRVRTTATIAGARIPIQVDIGFGDAITPAAVEIDYPTLLDAPTPHLRAYPVETVVAEKFAALVTLGVANSRLKDFYDLWVISRTFELRRAALAEAIQRTFERRGTVLPSVVPVGLTDEFAETWAAQWRAFLERDRMAAAPDAFAVTVADLRLFLMPLVVGLKEERIWPPSGPWSPGAAIDEAEGHHHHHH", "soluble on expression in E. coli": "soluble"}
{"sequence": "MSLARVFNACLFFYKIGGKMAMGEFDLIKRYFQQQILVDDSVQLSIGDDCALVSVPENYQLAITTDTMVENTHFLPTISPEDLAYKAVATNLSDLAAMGAQPKWVSLALTLPNVDENWISTFSQSLLHTLKQYNVTLIGGDTTKGNLSITITAQGFVEKNKGICRHKAQIGDLIYVSSTLGDSAAGLTQILLGKSAVDSDDVFLQQRHLRPTPRIELGQALIGIAHVAIDLSDGLISDLGHILERSQCSAEVELTALPLSSSILNKYDRTQAEQFALSGGEDYELCFTIPPEYKDELELRLKKLNVPCTCIGKINEKCGDFSPRFLRDGKPVNITFSSGFDHFKESKEGHHHHHH", "soluble on expression in E. coli": "soluble"}
{"sequence": "MSLASFPHRNLTWNDINFVHTTDTHGWYSGHINQPLYHANWGDFISFTTHMRRIAHSRNQDLLLIDSGDRHDGNGLSDITSPNGLKSTPIFIKQDYDLLTIGNHELYLWENSKQEYETVVNHFQDKYVCSNVDIRLDNGLFVPLGLKYKYFTTPIRGIRVMAFGFLFDFKRFNSGTRVTPMAETIHEPWFQEALKHEVDLIIIVGHTPISHNWGEFYQVHQYLRQFFPDTIIQYFGGHSHIRDFTVFDSLSTGLQSGRYCETVGWTSVNLDKADLNLPVRQRFSRSYIDFNTDSFKYHTNLDKEFDTAKGKLVSKLIRETRKELKLDTLIGYVKTNYYVDYVPIDHPKSIFNLLALKILKTLPKSKHEERITIINTGSIRYDLYKGPYTIDSKFIVSPFENIWVNITVPKSVATKVAAKLNDADYISASRLKPPHQYDLQVQDLSTSPHQAHFEMQEKLPKGYVTHDDFGADGDDTLHRAVVNFPVPNVIQSVEINDEVDSPVNLVFYSFITPNIIWALKELNFSTEQVPTPYSDIYLGTLLNEFVANNEGHHHHHH", "soluble on expression in E. coli": "soluble"}
{"sequence": "MSLASLRVLALACLPLFAVLHADAKTLLGKVKRATGMGVGEGPSVAKKPKYTATVPGFTPPSGDQRMNEFMAVDTSGEFMRHLYIEEGRTVCASATSRNRRPTSESPHSDDVVVVEGMLRGRPETRVHAMFDGFQGRHSAMWLAQNVMNYLNDLRDVNEEEITRQFERMDGDLRAANLPGGSSALIIFVRYEKKPTEARVVGRQIVPEGAKEFTSVAEALGGPLMPVVAMNFRRDPRAAKGIYTIHVASLGNSRCVLKSGRTAIHLSTPHTASSHKERHRVQAAGGVFTTVNGELLLGGVVPMTRAFGSFDFKKGGQGKLQQDLVSAVPDVTTFFAYPGDDIVAGTAGAFAHFRSHAAIAAAIALYPVSPETVLDAAEGHHHHHH", "soluble on expression in E. coli": "soluble"}
{"sequence": "MSLASVWKRLQRVGKHASKFQFVASYQELMVECTKKWQPDKLVVVWTRRSRRKSSKAHSWQPGIKNPYRGVVVWPVPENIEITVTLFKDPHAEEFEDKEWTFVIENESPSGRRKALATSSINMKQYASPMPTQTDVKLKFKPLSKKVVSATLQFSLSCIFLREGKATDEDMQSLASLMSMKQADIGNLDDFEEDNEDDDENRVNQEEKAAKITEGHHHHHH", "soluble on expression in E. coli": "not soluble"}
{"sequence": "MSLAVEKITMPKLGESVTEGTISSWLVKPGDTVEKYDAIAEVLTDKVTAEIPSSFSGTIKEILAEEDETLEVGEVICTIETADAGSSEPVAEVEETETKAPEKQETKQVKLADAPASGRFSPAVLRIAGENNIDLSTVEGTGKGGRITRKDLLQVIENGPVAKREEMKSAPQEKAAMPTPPVRSAAGDKEIPINGVRKAIAKHMSVSKQEIPHAWMMVEVDATGLVRYRNAVKDSFKKEEGYSLTYFAFFIKAVAQALKEFPQLNSTWAGDKIIEHANINISIAIAAGDLLYVPVIKNADEKSIKGIAREISELAGKARNGKLSQADMEGGTFTVNSTGSFGSVQSMGIINHPQAAILQVESIVKRPVIIDDMIAVRDMVNLCLSIDHRILDGLLAGKFLQAIKANVEKISKENTALYEGHHHHHH", "soluble on expression in E. coli": "soluble"}
{"sequence": "MSLAVIKQDDLIQSVADALQFISYYHPVDFIQAMHEAYLREESPAARDSMAQILINSRMCATGHRPICQDTGIVTVFVRVGMDVRWDGATMSVDDMINEGVRRAYNLPENVLRASILADPAGARKNTKDNTPAVIHYSIVPGDKVEVDVAAKGGGSENKSKMAMLNPSDSIVDWVLKTVPTMGAGWCPPGMLGIGIGGTAEKAAVMAKEVLMDPIDIHELKARGPQNRIEELRLELFEKVNQLGIGAQGLGGLTTVLDVKIMDYPTHAASLPVCMIPNCAATRHAHFVLDGSGPAELEAPSLDAYPEIVWEAGPSARRVDLDKITPEEVQSWKPGETLLLNGKMLTGRDAAHKRMVDMLNKGETLPVDLKGRFIYYVGPVDPVGDEVVGPAGPTTATRMDKFTRQILEQTGLLGMIGKSERGPIAIEAIKDNKAVYLMAVGGAAYLVAQAIKKSKVLAFAELGMEAIYEFEVKDMPVTVAVDTNGESVHITGPAVWQKKIAESLAVEVKEGGSHHHHHH", "soluble on expression in E. coli": "soluble"}
{"sequence": "MSLAVKPIPEGQHSITPYLAINDAAKAIEFYKQAFGAKEMFRLDAPGGRVGHAELRIGDSSLMLGDPCDMEGGLTASQKLSGAGVGLHLYVEDCDKVYAQALAAGGIQLHPLTDQFYGDRSGTLKDPFGNIWFVSTHKEDLTPDEIRARAAKMFGEGHHHHHH", "soluble on expression in E. coli": "soluble"}
